Assay results: patent publication US20250034594A1, “RNA-GUIDED GENOME RECOMBINEERING AT KILOBASE SCALE” (THE BOARD OF TRUSTEES OF THE LELAND STANFORD JUNIOR …, priority 2021, published 2025)

B1: SSAP_139: SEQ ID NO: 308; Butyrivibrio sp. FCS006 (protein, listed as Butyrivibrio sp.)
chain: PYLFGGQMKEQEIKNQLAAKAVETTNPKLSKNMNIADLIKAIEPEIKKALPTVITPERFTRIALSALNTTPKLAECSQMSFLAALMNAAQLGLEVNSPLGQAYLIPYNNKGKLECQFQIGYKGMLGLAYRNPEIQTIQAQVVYENDDFKYELGLDSKLYHKPSLSDRGKVRCYYALYKLRNGGYGFEVMSRRDVEEYAKRYSKVTDSLYSPWANNFDSMAKKTVIKQLLKYAPLRTDLEKAMSMDESIKTRVSVDMSEVENEETFDAEVEV
B2: SSAP_53: SEQ ID NO: 222 (protein)
chain: STALTTLTSQLSQRFKLDGGEELLTTLKQTAFKGQVTDAQMTALLIVANQFGLNPWTKEIYAFPDKNGGIVPVVGVDGWARIINEHPQFDGMDFEMDGEQSCTCVIYRKDRTRPIRITEYMAECKKTGGGPWQSHPRRMLRHKAMIQCARMAFGFGGISDEDDAERIREKDITPQAEVVPKALEPYPADKFEENFEQWKSLIESGRRSADDVIAKIKSRNTMTDEQETRLRACGGEEGKTYENA
B3: SSAP_281: SEQ ID NO: 450; Leucobacter luti (protein, listed as Leucobacter luti)
chain: SDLSQAAVAVKKSKTVEDYLTEYEPQFQRALGKSMDAAKFSQDALTAIKQTPQLGQADLQTLFGSLFLAAQLKLPVGGPLAQFHLTPRKRGDKLEVLPIIGFGGYVQLIMNTGLYSKVGAFLIYEKDYFDEGANSERGEFYDFKKSRGDRGPVVGVIAYVKLKGFDESQYVFLDADTIRSRHRPRYWEKTPWGSDEGEMFKKTGVRVLQKLLPKSVEAAPLALAADADQATVRKVDGIEDLTIQHDVVDAEVVPDGVPV
B4: SSAP_136: SEQ ID NO: 305; Corynebacterium striatum (protein, listed as Corynebacterium striatum)
chain: GTNLEQRMAANNAPAKQNRPVTLADQIRSMESQFQLAMPKGMEAQQLVRDALTCLRQTPKLAECTPQSVLGGLMTCSQLGLRPGVLGHAYLLPFWDRKQGGMVAQLVVGYRGLVELAHRSGQIQSLIARTVYENDHFDVDYGLDDKLVHKPCMNGPKGNPIAYYAVAKFTTGGHSFIVMSKDEMLAYRDEFAKAKNKQGEVFGPWADNFDAMAHKTCVRQLAKWMPSSTDLDRGIAADETVRVDLSESALDYPQHVDGEVVDSKPAEDEAA
B5: SSAP_127: SEQ ID NO: 296; Solibacillus sp. R5-41 (protein, listed as Solibacillus sp.)
chain: ATSNELKKQAQGQVTAKPTTPEGSLNALLKKMGPEIQRALPKHMDADRIARIALTAVRTTPKLLECDQLSFVAALMQSAQLGVEPNTGLGQAYLIPYGGKVQFQLGYKGLIDLAVRSGQYKAIYAHEVYADDEFSFAYGLHKDLVHVPSANPSGDPIGYYAVYHLKNGGYDFVYWTRERIDIHSKAFSQAVQKGWTSPWKTNYDAMAKKTVLKEVLKYAPKSIEMQKVVEADETIKNEVAPDMSNVIDVTDYSILEDPQDVTDAQ
B6: SSAP_200: SEQ ID NO: 369; Streptomyces (multispecies) (protein, listed as Streptomyces sp.)
chain: SQISNALATRDQGPAAQIEQYRDEYAALVPSHVNADQWVRLAVGAVRGDEKLMEAAQNDIGLFLREMKTAARLGLEPGTEQFYLTPRKSKPHGGRKVIKGIVGYQGIVELIYRAGAASTVIVEAVRENDTFRYVPGRDDRPVHEIDWFANDRGPLVGVYAYAVMKDGAVSKVVVLNRSRVMEFKAKSDSKHSEYSPWNTNEEAMWLKSAVRQLAKWVPTSAEYRRDQLLAHTETADSVVASVSTAPLPPQPSALDDADPDDDGPIDAELVD
B7: SSAP_116: SEQ ID NO: 285; Lachnoclostridium sp. An14 (protein, listed as Lachnoclostridium sp.)
chain: TDVKQELERKVGKQDSTAVRLTKNMSIPDMIKALEPEIRRALPAVLTPERFLRMALSAVNNTPKLAECTPMSFIAAMMNAAQLGLEPNTPLGQAYLIPYKNKNQLECQFQIGYKGIIDLAYRTGQMQMIQAHAVHEFDDFEYEYGLNPKLIHRPGDGNRGEITYFYGLFKLVNGGFGFEVMNREAMEAFAQQYSQSYGSQYSPWVKNFEDMAKKTVIKKALKYGPVKAEFQKAISMDETIKTEIAVDMTEVQNEESE
B8: SSAP_195: SEQ ID NO: 364; Isoptericola dokdonensis (protein, listed as Isoptericola dokdonensis)
chain: TQDLATAIADQQPAQRRTAFDLVESMRGELHKALPEHASIDNFLRLALTELKMNPQLGNCSGESLLGALMTAARVGLEVGGPLGQFYLTPRRLKRDGWAVVPIVGYRGLITLARRAGVGQVNAVVVHEGDTFREGASSERGFFFDWEPAVERGKPVGALAAARLAGGDVQHRYLSLAEVHERRDRGGFKDGSNSPWATDYDAMVRKTALRALVPLLPQSTALSFAVQADEQVQRYDAGDIDIPALDETDTEDTK
B9: SSAP_212: SEQ ID NO: 381; Streptomyces sp. NRRL S-1824 (protein, listed as Streptomyces sp.)
chain: SEISNAIATRDQGPAAQIEAYRDEYAALVPSHINVDQWVRLAAGAIRGNEDLMEAARNDIGVFLRELKTAARLGLEPGTEQFYLTARKSKAHGYALIIKGIVGYQGIVELIYRAGAVSSVIVEAVRANDTFSYVPGRDDRPIHEIDWFGGDRGPLVGVYAYAVMKDGAVSKVVVMNHKRVMEIKARSDSKNSQYSPWNTDEESMWLKSAIRQLAKWVPTSAEYKSEQLRAHAEAIGELASVASAPLPPQPSVLDDVDPDDEGPIEGELVD

Columns and labels:
Format in all cases: cell-based
gene editing with dCas9 = assay: Screen of 322 new SSAP proteins, gene editing activity with dCas9 (Table 5); design: dCas9 with SSAP activity: scale not given here
Outline: (§1)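 Read-out is gene editing activity. Candidates come from sequence data mining, are made synthetically, and are tested alongside either nuclease-active Cas9 or catalytically dead dCas9.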

[1] = system: gene editing with Cas9 and dCas9; assay: Screen of 322 new SSAP proteins, activity across all experiments (Cas9 and dCas9, Table 5); design: scale not given here
Outline: as §1

gene editing with Cas9 = assay: Screen of 322 new SSAP proteins, gene editing activity with Cas9 (Table 5); design: Cas9 with SSAP activity: scale not given here
Outline: as §1

Molecule | dCas9 with SSAP activity (gene editing with dCas9) | Activity across all experiments [1] | Cas9 with SSAP activity (gene editing with Cas9) | dCas9 with SSAP activity (normalized) (gene editing with dCas9) | Cas9 with SSAP activity (normalized) (gene editing with Cas9)
B1 | −6.481 | −6.481 | −6.481 | – | –
B2 | 0.088 | −0.778 | −1.644 | 0.036 | −1.327
B3 | −6.188 | −3.655 | −1.121 | −0.973 | −0.672
B4 | −6.395 | −3.495 | −0.594 | −0.952 | −0.262
B5 | −6.524 | −3.048 | 0.427 | −1.210 | 0.447
B6 | −6.514 | −4.491 | −2.468 | −1.107 | −0.973
B7 | −6.481 | −3.394 | −0.307 | – | −0.056
B8 | −6.406 | −4.084 | −1.761 | −0.956 | −1.896
B9 | −6.577 | −3.064 | 0.448 | −1.182 | 0.210
